Bounds are passed on as bounds.

This is an account of results in patent US20210238298A1 (ALLIGATOR BIOSCIENCE, published 2021).

Assay [1] concerns the target T1, Human OX40 (R&D systems, #3358_OX) (human, UniProt P43489 29-216).
T1 construct: Bought; Several catalogue numbers are given for it; also called human OX40 (R&D Systems, 3388-OX); OX40-Fc (R&D systems, #3358_OX); not shown: Fc part
T1 sequence: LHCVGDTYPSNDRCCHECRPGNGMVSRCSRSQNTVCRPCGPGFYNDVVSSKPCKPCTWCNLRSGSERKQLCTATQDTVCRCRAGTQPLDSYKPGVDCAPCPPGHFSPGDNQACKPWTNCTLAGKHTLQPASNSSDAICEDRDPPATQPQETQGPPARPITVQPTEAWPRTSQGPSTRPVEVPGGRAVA
The assay can be described thus: dual ELISA: OX40-Fc coated, bispecific antibody in dilutions, biotinylated CD137-Fc (1 ug/ml), HRP-streptavidin; the signal needs both bindings at once.

In assay [2] the target is T2, CTLA-4 (BMS, Orencia) (human, UniProt P16410 38-152). The assay can be described thus: cell-based or functional assay.
The target in assay [3] is T2, CTLA-4 (BMS, Orencia). The assay can be described thus: cell-based or functional assay. This is another data set of the same source.
The target of assay [4] is T3, CTLA4-Fc (Fitzgerald, #30R-CD152) (human, UniProt P16410 38-152).
T3 construct: Bought; also called human CTLA-4 (Fitzgerald); biotinylated-CTLA4; not shown: Fc part of the bought fusion, not described
The assay is described as follows: SPR (Biacore), immobilised CTLA4-Fc. The protocol: Either CTLA4-Fc (Fitzgerald, #30R-CD152) or CD28-Fc (R&D Systems, 342-CD) was immobilized to the Biacore™ sensor chip, CM5, using conventional amine coupling. The CD86 mutant molecules and controls (serially diluted ½ 100-1.5 nM) were analyzed for binding in HBS-P (GE, BR-1003-68) at a flow rate of […]. The association was followed for 3 minutes and the dissociation for 10 minutes. Regeneration was performed twice using 5 mM NaOH for 30 seconds. The kinetic parameters and the affinity constants were calculated using BIAevaluation 4.1 software (Table 1.3).
On the technique in general: Surface plasmon resonance follows binding to a sensor surface in real time, without labels.

Assay [5] has as its target T3, CTLA4-Fc (Fitzgerald, #30R-CD152). The assay can be described thus: inhibition ELISA; the best IC50 of Table 1.2 is that of 1040. The protocol:
The sample (CD86 mutant or wild type protein; serially diluted ¼ from 30000 to 0.3 ng/ml) was incubated with biotinylated-CTLA4 (Fitzgerald, #30R-CD152) in room temperature 1 h, the mixture was then added to the blocked wells in the ELISA plate. Detection was performed with Streptavidin-HRP (Pierce, #21126) and the plates were subsequently developed using SuperSignal Pico Chemiluminescent substrate (Thermo Scientific, #37069) and detected with Envision reader (Perkin Elmer). […] Kd binding ratio=[Kd for CD28]÷[Kd for CTLA-4].
In general terms: ELISA stands for enzyme-linked immunosorbent assay.

A further assay deals with T4, CD40 (Ancell) (UniProt P25942 21-193).
T4 construct: also called CD40-Fc (Ancell #504-820); not shown: Fc part, not described
The assay can be described thus: ELISA, coated CD40-Fc. The protocol:
(§1) ELISA plates (Greiner #655074) were coated with 50 μl/well of recombinant human OX40 (R&D #1493-CD), CD40-Fc (Ancell #504-820) or CD137 (R&D #838-4B) diluted to a final concentration of 0.5 μg/ml in PBS for 1 h at 37° C. or overnight at 4° C. Plates were washed with PBS+0.05% TWEEN20 (PBST), followed by block with PBST+1% bovine serum albumin (BSA). Antibody samples were prepared as serial 1/10 dilutions from 10-0.01 μg/ml in PBST+1% BSA and incubated for 1h in room temperature, followed by detection using a horse radish peroxidase-conjugated anti-human kappa light chain antibody (AbD Serotec #STAR127P) and developed using SuperSignal ELISA Pico Chemiluminescent substrate (Pierce ThermoScientific #37069).

The target in assay [6] is CD137 on primary human CD8+ T cells (human, UniProt Q07011 24-255). The assay can be described thus: cell-based or functional assay.
Assay [7] deals with T1, Human OX40 (R&D systems, #3358_OX). The assay can be described thus: ELISA, coated recombinant human OX40. The protocol:
as §1

For assay [8], the target named is T5, CD137 chimera 1554 (1411): human CD137 with mouse domains 3B, 4A and 4B (aa 97-159), on FreeStyle 293-F cells (human; mouse, UniProt P20334 96-159).
T5 construct: domain: 3B, 4A and 4B
The assay is described as follows: flow cytometry, 293-F transfectants. (A flow cytometer gives signals particle by particle.)

Assay [9] deals with T6, CD137 chimera 1555 (1412): human CD137 with mouse domains 1 and 4B and region of unknown function (aa 24-46 … (human; mouse, UniProt P20334 24-45; P20334 139-185).
T6 construct: domain: 1;domain: 4B and region of unknown function
The assay can be described thus: flow cytometry, 293-F transfectants.

T2 sequence (P16410 38-152 limits assumed): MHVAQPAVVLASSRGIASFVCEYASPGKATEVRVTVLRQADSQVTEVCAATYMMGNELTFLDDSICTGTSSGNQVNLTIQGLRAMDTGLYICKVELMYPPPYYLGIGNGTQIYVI
T3 sequence (P16410 38-152 limits assumed): as above
T4 sequence (P25942 21-193 limits assumed): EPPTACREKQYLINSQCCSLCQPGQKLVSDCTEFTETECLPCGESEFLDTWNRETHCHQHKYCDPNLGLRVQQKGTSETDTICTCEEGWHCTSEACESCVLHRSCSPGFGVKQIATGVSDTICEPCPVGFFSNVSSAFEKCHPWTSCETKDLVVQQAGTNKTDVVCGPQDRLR
Sequence of CD137 on primary human CD8+ T cells (Q07011 24-255 limits assumed): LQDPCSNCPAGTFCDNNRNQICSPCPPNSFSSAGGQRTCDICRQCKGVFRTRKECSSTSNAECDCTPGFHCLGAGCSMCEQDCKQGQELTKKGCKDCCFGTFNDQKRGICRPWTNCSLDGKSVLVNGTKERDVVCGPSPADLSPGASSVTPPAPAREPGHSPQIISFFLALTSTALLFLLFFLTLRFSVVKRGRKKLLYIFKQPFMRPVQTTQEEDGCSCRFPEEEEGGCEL
T5 sequence (P20334 other isoform, or with tags, fused parts or gaps mutant limits assumed): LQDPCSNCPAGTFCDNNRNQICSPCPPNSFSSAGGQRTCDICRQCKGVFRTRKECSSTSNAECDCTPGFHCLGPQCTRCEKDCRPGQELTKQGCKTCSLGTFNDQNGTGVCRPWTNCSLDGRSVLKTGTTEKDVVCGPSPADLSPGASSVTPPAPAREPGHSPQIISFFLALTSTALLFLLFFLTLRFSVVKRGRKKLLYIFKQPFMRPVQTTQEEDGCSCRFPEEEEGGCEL
T6 sequence (P20334 other isoform, or with tags, fused parts or gaps mutant limits assumed): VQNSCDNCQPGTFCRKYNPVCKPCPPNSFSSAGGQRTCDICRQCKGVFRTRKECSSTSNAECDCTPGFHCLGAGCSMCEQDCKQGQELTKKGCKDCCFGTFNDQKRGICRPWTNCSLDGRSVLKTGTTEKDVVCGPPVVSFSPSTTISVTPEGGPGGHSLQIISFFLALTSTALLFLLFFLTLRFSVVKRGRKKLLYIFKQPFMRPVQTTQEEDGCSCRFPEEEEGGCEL

B1: 1526/1527-1204/1205 (bispecific antibody, human IgG1, kappa)
heavy chain fused to scFv (VH1-Hc-linker-VH2/VL2): not shown
light chain (VL1-Lc): DIQMTQSPSSLSASVGDRVTITCRASQSISSYLNWYQQKPGKAPKLLIYAASSLQSGVPSRFSGSGSGTDFTLTISSLQPEDFATYYCQQYGSDSLLTFGQGTKLEIKRTVAAPSVFIFPPSDEQLKSGTASVVCLLNNFYPREAKVQWKVDNALQSGNSQESVTEQDSKDSTYSLSSTLTLSKADYEKHKVYACEVTHQGLSSPVTKSFNRGEC
notes: OX40 x CD137 bispecific antibody, scFv-IgG format
Consider B1, for which the binding result in assay [1] is on record as “binds”.

B2: bispecific molecule 1170/1263 (OX40 x CTLA-4) (bispecific antibody, human IgG1, kappa)
heavy: not shown
light: DIQMTQSPSSLSASVGDRVTITCRASQSISSYLNWYQQKPGKAPKLLIYAASSLQSGVPSRFSGSGSGTDFTLTISSLQPEDFATYYCQQGHGSYPHTFGQGTKLEIKRTVAAPSVFIFPPSDEQLKSGTASVVCLLNNFYPREAKVQWKVDNALQSGNSQESVTEQDSKDSTYSLSSTLTLSKADYEKHKVYACEVTHQGLSSPVTKSFNRGECSGGGGSGGGGSAPLKIQAYFNETADLPCQFANSQNLSLSELVVFWQDQENLVLNEVYLGKERFDSVDSKYMGRTSFDSDSWTLRLHNLQIKDKGRYQCIIHHKKPTGMINIHQMNSELSVLA
For the molecule B2, the “Fold change in IL-2 level induced by bispecific molecule compared to the corresponding combination of the monospecific molecules at 1.5 nM” value with CTLA-4 (BMS, Orencia) [2] is 4.7 fold. For the same molecule, the “Mean IL-2 level (pg/ml) induced at 1.5 nM” value with CTLA-4 (BMS, Orencia) [3] was determined as 2580 pg/mL.

B3: bispecific molecule 1526/1585 (OX40 x CTLA-4) (bispecific antibody, human IgG1, kappa)
heavy: not shown
light: DIQMTQSPSSLSASVGDRVTITCRASQSISSYLNWYQQKPGKAPKLLIYAASSLQSGVPSRFSGSGSGTDFTLTISSLQPEDFATYYCQQYGSDSLLTFGQGTKLEIKRTVAAPSVFIFPPSDEQLKSGTASVVCLLNNFYPREAKVQWKVDNALQSGNSQESVTEQDSKDSTYSLSSTLTLSKADYEKHKVYACEVTHQGLSSPVTKSFNRGECSGGGGSGGGGSAPLKIQAYFNETADLPCQFANSQNLSLSELVVFWQDQENLVLNEVYLGKERFDSVDSKYMGRTSFDSDSWTLRLHNLQIKDKGRYQCIIHHKKPTGMINIHQMNSELSVLA
Take B3: the “Mean IL-2 level (pg/ml) induced at 1.5 nM” value in the assay with CTLA-4 (BMS, Orencia) [3] was found to be 3200 pg/mL.

B4: CD86 mutant 1040 (ligand)
chain: APLKIQAYFNETADLPCQFANSQNLSLSELVVFWQDQENLVLNEVYLGKERFDSVDSKYMGRTSFDSDSWTLRLHNLQIKDKGRYQCIIHHKKPTGMINIHQMNSELSVLA
notes: Variant of the CD86 extracellular domain
One may read the Kd as the constant that tells how readily two partners part at equilibrium. Higher therefore signals lower affinity. By koff is commonly meant a measure of how fast the partners let go of each other. A higher koff goes with a short-lived complex. Usually kon stands for the rate constant with which the complex forms. In [4], B4 showed a Kd of 3 nM, a koff of 0.0032 s⁻¹ and a kon of 1e+06 M⁻¹ s⁻¹. The “fold improvement of IC50 compared to wild type” value in assay [5] was more than 100 fold.

B5: anti-CD137 antibody 1214/1215 (antibody, IgG1, V domains shown)
VH: EVQLLESGGGLVQPGGSLRLSCAASGFTFSSYAMSWVRQAPGKGLEWVSSIGSGGGYTGYADSVKGRFTISRDNSKNTLYLQMNSLRAEDTAVYYCARVGHPFDYWGQGTLVTVSS
VL: DIQMTQSPSSLSASVGDRVTITCRASQSISSYLNWYQQKPGKAPKLLIYAASSLQSGVPSRFSGSGSGTDFTLTISSLQPEDFATYYCQQDAYPHTFGQGTKLEIK
notes: Produced as IgG; also called 1214-bio
On to B5, for which, in the assay with CD40 (Ancell), the binding result is listed as “no binding (tested: 10 µg/ml)”. In assay [6], the “Max IFN-γ” value was determined as 122000 pg/mL, the “Mean IFN-γ” value came to 51800 pg/mL and the “Min IFN-γ” value is 8210 pg/mL. In addition, the binding result in assay [7] is “no binding (tested: 10 µg/ml)”.

B6: anti-CD137 antibody 1620/1621 (antibody, IgG1, V domains shown)
VH: EVQLLESGGGLVQPGGSLRLSCAASGFTFSGYYMYWVRQAPGKGLEWVSGISSSGSYTYYADSVKGRFTISRDNSKNTLYLQMNSLRAEDTAVYYCARSVGPYFDYWGQGTLVTVSS
VL: DIQMTQSPSSLSASVGDRVTITCRASQSISSYLNWYQQKPGKAPKLLIYAASSLQSGVPSRFSGSGSGTDFTLTISSLQPEDFATYYCQQGVGPYTFGQGTKLEIK
notes: Produced as IgG
For B6, the binding result in the assay with CD40 (Ancell) is reported as “no binding (tested: 10 µg/ml)”. Besides, in [6], the “Max IFN-γ” value was 123000 pg/mL, the “Mean IFN-γ” value was found to be 52400 pg/mL and the “Min IFN-γ” value came to 7730 pg/mL. Besides, in [7], the binding result was “no binding (tested: 10 µg/ml)”.

B7: anti-CD137 antibody 1204/1205 (antibody, IgG1, V domains shown)
VH: EVQLLESGGGLVQPGGSLRLSCAASGFTFSSYYMGWVRQAPGKGLEWVSGIGSYYGYTGYADSVKGRFTISRDNSKNTLYLQMNSLRAEDTAVYYCARAYYDYNYYYAYFDYWGQGTLVTVSS
VL: DIQMTQSPSSLSASVGDRVTITCRASQSISSYLNWYQQKPGKAPKLLIYAASSLQSGVPSRFSGSGSGTDFTLTISSLQPEDFATYYCQQSVPHYPFTFGQGTKLEIK
notes: Produced as IgG; also called 1204-bio
Regarding B7, in the assay with CD40 (Ancell), the binding result is reported as “no binding (tested: 10 µg/ml)”. Besides, in [6], the “Max IFN-γ” value is 153000 pg/mL, the “Mean IFN-γ” value came out at 64400 pg/mL and the “Min IFN-γ” value was determined as 13100 pg/mL. The “relative binding (MFI sample/isotype control, normalised to full-length human CD137)” value in [8] turned out to be 0.73. For the same molecule, in assay [9], the “relative binding (MFI sample/isotype control, normalised to full-length human CD137)” value amounted to 0.28. Besides, the binding result in assay [7] is “no binding (tested: 10 µg/ml)”.

B8: anti-CD137 antibody 1626/1627 (antibody, IgG1, V domains shown)
VH: EVQLLESGGGLVQPGGSLRLSCAASGFTFGGYSMYWVRQAPGKGLEWVSSIGGYYYSTYYADSVKGRFTISRDNSKNTLYLQMNSLRAEDTAVYYCARSYYGSIDYWGQGTLVTVSS
VL: DIQMTQSPSSLSASVGDRVTITCRASQSISSYLNWYQQKPGKAPKLLIYAASSLQSGVPSRFSGSGSGTDFTLTISSLQPEDFATYYCQQGTGYGPLTFGQGTKLEIK
notes: Produced as IgG; also called 1626-bio
On to B8, for which the binding result in the assay with CD40 (Ancell) was “no binding (tested: 10 µg/ml)”. In [6], the “Max IFN-γ” value was found to be 32200 pg/mL, the “Mean IFN-γ” value was determined as 15100 pg/mL and the “Min IFN-γ” value came out at 4160 pg/mL. Also, the binding result in assay [7] is “no binding (tested: 10 µg/ml)”.
